The assay addresses T1, CRF1R receptor (anti-target) (UniProt P34998 24-415, limits assumed).
T1 sequence (looked up): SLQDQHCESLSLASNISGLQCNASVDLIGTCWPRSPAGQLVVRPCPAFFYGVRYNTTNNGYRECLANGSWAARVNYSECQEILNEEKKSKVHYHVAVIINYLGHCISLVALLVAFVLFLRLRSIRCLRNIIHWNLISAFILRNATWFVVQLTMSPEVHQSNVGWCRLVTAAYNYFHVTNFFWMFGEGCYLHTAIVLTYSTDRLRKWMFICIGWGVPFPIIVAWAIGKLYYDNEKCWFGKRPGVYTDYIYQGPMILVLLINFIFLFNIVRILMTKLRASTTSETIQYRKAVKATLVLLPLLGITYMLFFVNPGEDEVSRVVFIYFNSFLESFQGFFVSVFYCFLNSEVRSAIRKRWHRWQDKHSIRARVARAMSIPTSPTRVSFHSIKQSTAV
Briefly: cell-based or functional assay.

Starred links: 1 amine or outer side, 2 acyl side, 3 side chain; linkers in the order of their positions; H or OH if unused. Non-standard residues stand in square brackets, D forms with d. Groups on a side chain read outwards from the residue. No end group written: not given here. *: point of attachment. C16 diacid = O=C(O)CCCCCCCCCCCCCCC(=O)*; γGlu = O=C(O)[C@H](CCC(=O)[*:2])N[*:1]; Aib = CC(C)(N)C(=O)O A value given as a limit tells only on which side of the number the result lay.

B1: peptide of SEQ ID NO: 190 (peptide)
peptide: IVLSLD[dV]PIKLK([γGlu-C16 diacid])QILLKQERQKKQREQAEKNKQILEQV-NH2
modifications: N-terminus assumed
SMILES: CC[C@H](C)[C@H](N)C(=O)N[C@H](C(=O)N[C@@H](CC(C)C)C(=O)N[C@@H](CO)C(=O)N[C@@H](CC(C)C)C(=O)N[C@@H](CC(=O)O)C(=O)N[C@@H](C(=O)N1CCC[C@H]1C(=O)N[C@H](C(=O)N[C@@H](CCCCN)C(=O)N[C@@H](CC(C)C)C(=O)N[C@@H](CCCCNC(=O)CC[C@H](NC(=O)CCCCCCCCCCCCCCC(=O)O)C(=O)O)C(=O)N[C@@H](CCC(N)=O)C(=O)N[C@H](C(=O)N[C@@H](CC(C)C)C(=O)N[C@@H](CC(C)C)C(=O)N[C@@H](CCCCN)C(=O)N[C@@H](CCC(N)=O)C(=O)N[C@@H](CCC(=O)O)C(=O)N[C@@H](CCCNC(=N)N)C(=O)N[C@@H](CCC(N)=O)C(=O)N[C@@H](CCCCN)C(=O)N[C@@H](CCCCN)C(=O)N[C@@H](CCC(N)=O)C(=O)N[C@@H](CCCNC(=N)N)C(=O)N[C@@H](CCC(=O)O)C(=O)N[C@@H](CCC(N)=O)C(=O)N[C@@H](C)C(=O)N[C@@H](CCC(=O)O)C(=O)N[C@@H](CCCCN)C(=O)N[C@@H](CC(N)=O)C(=O)N[C@@H](CCCCN)C(=O)N[C@@H](CCC(N)=O)C(=O)N[C@H](C(=O)N[C@@H](CC(C)C)C(=O)N[C@@H](CCC(=O)O)C(=O)N[C@@H](CCC(N)=O)C(=O)N[C@H](C(N)=O)C(C)C)[C@@H](C)CC)[C@@H](C)CC)[C@@H](C)CC)C(C)C)C(C)C
For the molecule B1, the “EC50 [nM] 0% HSA (cAMP, HTRF)” value is over 100 nM and the “Emax (%) (100% = Sauvagine at 100 nM)” value is 12%.

B2: peptide of SEQ ID NO: 189 (peptide)
peptide: IVLSLD[dV]PIKLK([γGlu-C16 diacid])QILLKQERQKK[Aib]RQKAEKNKQILAQV-NH2
modifications: N-terminus assumed
SMILES: CC[C@H](C)[C@H](N)C(=O)N[C@H](C(=O)N[C@@H](CC(C)C)C(=O)N[C@@H](CO)C(=O)N[C@@H](CC(C)C)C(=O)N[C@@H](CC(=O)O)C(=O)N[C@@H](C(=O)N1CCC[C@H]1C(=O)N[C@H](C(=O)N[C@@H](CCCCN)C(=O)N[C@@H](CC(C)C)C(=O)N[C@@H](CCCCNC(=O)CC[C@H](NC(=O)CCCCCCCCCCCCCCC(=O)O)C(=O)O)C(=O)N[C@@H](CCC(N)=O)C(=O)N[C@H](C(=O)N[C@@H](CC(C)C)C(=O)N[C@@H](CC(C)C)C(=O)N[C@@H](CCCCN)C(=O)N[C@@H](CCC(N)=O)C(=O)N[C@@H](CCC(=O)O)C(=O)N[C@@H](CCCNC(=N)N)C(=O)N[C@@H](CCC(N)=O)C(=O)N[C@@H](CCCCN)C(=O)N[C@@H](CCCCN)C(=O)NC(C)(C)C(=O)N[C@@H](CCCNC(=N)N)C(=O)N[C@@H](CCC(N)=O)C(=O)N[C@@H](CCCCN)C(=O)N[C@@H](C)C(=O)N[C@@H](CCC(=O)O)C(=O)N[C@@H](CCCCN)C(=O)N[C@@H](CC(N)=O)C(=O)N[C@@H](CCCCN)C(=O)N[C@@H](CCC(N)=O)C(=O)N[C@H](C(=O)N[C@@H](CC(C)C)C(=O)N[C@@H](C)C(=O)N[C@@H](CCC(N)=O)C(=O)N[C@H](C(N)=O)C(C)C)[C@@H](C)CC)[C@@H](C)CC)[C@@H](C)CC)C(C)C)C(C)C
Regarding B2, the “EC50 [nM] 0% HSA (cAMP, HTRF)” value was over 100 nM and the “Emax (%) (100% = Sauvagine at 100 nM)” value turned out to be 15%.

B3: peptide of SEQ ID NO: 193 (peptide)
peptide: IVLSLD[dV]PIGLK([γGlu-C16 diacid])QILLKQERQKK[Aib]REQAETNKRILERV-NH2
modifications: N-terminus assumed
SMILES: CC[C@H](C)[C@H](N)C(=O)N[C@H](C(=O)N[C@@H](CC(C)C)C(=O)N[C@@H](CO)C(=O)N[C@@H](CC(C)C)C(=O)N[C@@H](CC(=O)O)C(=O)N[C@@H](C(=O)N1CCC[C@H]1C(=O)N[C@H](C(=O)NCC(=O)N[C@@H](CC(C)C)C(=O)N[C@@H](CCCCNC(=O)CC[C@H](NC(=O)CCCCCCCCCCCCCCC(=O)O)C(=O)O)C(=O)N[C@@H](CCC(N)=O)C(=O)N[C@H](C(=O)N[C@@H](CC(C)C)C(=O)N[C@@H](CC(C)C)C(=O)N[C@@H](CCCCN)C(=O)N[C@@H](CCC(N)=O)C(=O)N[C@@H](CCC(=O)O)C(=O)N[C@@H](CCCNC(=N)N)C(=O)N[C@@H](CCC(N)=O)C(=O)N[C@@H](CCCCN)C(=O)N[C@@H](CCCCN)C(=O)NC(C)(C)C(=O)N[C@@H](CCCNC(=N)N)C(=O)N[C@@H](CCC(=O)O)C(=O)N[C@@H](CCC(N)=O)C(=O)N[C@@H](C)C(=O)N[C@@H](CCC(=O)O)C(=O)N[C@H](C(=O)N[C@@H](CC(N)=O)C(=O)N[C@@H](CCCCN)C(=O)N[C@@H](CCCNC(=N)N)C(=O)N[C@H](C(=O)N[C@@H](CC(C)C)C(=O)N[C@@H](CCC(=O)O)C(=O)N[C@@H](CCCNC(=N)N)C(=O)N[C@H](C(N)=O)C(C)C)[C@@H](C)CC)[C@@H](C)O)[C@@H](C)CC)[C@@H](C)CC)C(C)C)C(C)C
For B3, the “EC50 [nM] 0% HSA (cAMP, HTRF)” value was over 100 nM and the “Emax (%) (100% = Sauvagine at 100 nM)” value is 8.77%.

B4: peptide of SEQ ID NO: 187 (peptide)
peptide: IVLSLD[dV]PIKLK([γGlu-C16 diacid])QILLKQERQK[Aib]QREQAEKNKQILAQV-NH2
modifications: N-terminus assumed
SMILES: CC[C@H](C)[C@H](N)C(=O)N[C@H](C(=O)N[C@@H](CC(C)C)C(=O)N[C@@H](CO)C(=O)N[C@@H](CC(C)C)C(=O)N[C@@H](CC(=O)O)C(=O)N[C@@H](C(=O)N1CCC[C@H]1C(=O)N[C@H](C(=O)N[C@@H](CCCCN)C(=O)N[C@@H](CC(C)C)C(=O)N[C@@H](CCCCNC(=O)CC[C@H](NC(=O)CCCCCCCCCCCCCCC(=O)O)C(=O)O)C(=O)N[C@@H](CCC(N)=O)C(=O)N[C@H](C(=O)N[C@@H](CC(C)C)C(=O)N[C@@H](CC(C)C)C(=O)N[C@@H](CCCCN)C(=O)N[C@@H](CCC(N)=O)C(=O)N[C@@H](CCC(=O)O)C(=O)N[C@@H](CCCNC(=N)N)C(=O)N[C@@H](CCC(N)=O)C(=O)N[C@@H](CCCCN)C(=O)NC(C)(C)C(=O)N[C@@H](CCC(N)=O)C(=O)N[C@@H](CCCNC(=N)N)C(=O)N[C@@H](CCC(=O)O)C(=O)N[C@@H](CCC(N)=O)C(=O)N[C@@H](C)C(=O)N[C@@H](CCC(=O)O)C(=O)N[C@@H](CCCCN)C(=O)N[C@@H](CC(N)=O)C(=O)N[C@@H](CCCCN)C(=O)N[C@@H](CCC(N)=O)C(=O)N[C@H](C(=O)N[C@@H](CC(C)C)C(=O)N[C@@H](C)C(=O)N[C@@H](CCC(N)=O)C(=O)N[C@H](C(N)=O)C(C)C)[C@@H](C)CC)[C@@H](C)CC)[C@@H](C)CC)C(C)C)C(C)C
Take B4: the “EC50 [nM] 0% HSA (cAMP, HTRF)” value is over 100 nM and the “Emax (%) (100% = Sauvagine at 100 nM)” value amounted to 43.8%.

B5: peptide of SEQ ID NO: 196 (peptide)
peptide: IVLSLD[dV]PIGLK([γGlu-C16 diacid])QILLKQERQKK[Aib]REQAEKNKRILERV-NH2
modifications: N-terminus assumed
SMILES: CC[C@H](C)[C@H](N)C(=O)N[C@H](C(=O)N[C@@H](CC(C)C)C(=O)N[C@@H](CO)C(=O)N[C@@H](CC(C)C)C(=O)N[C@@H](CC(=O)O)C(=O)N[C@@H](C(=O)N1CCC[C@H]1C(=O)N[C@H](C(=O)NCC(=O)N[C@@H](CC(C)C)C(=O)N[C@@H](CCCCNC(=O)CC[C@H](NC(=O)CCCCCCCCCCCCCCC(=O)O)C(=O)O)C(=O)N[C@@H](CCC(N)=O)C(=O)N[C@H](C(=O)N[C@@H](CC(C)C)C(=O)N[C@@H](CC(C)C)C(=O)N[C@@H](CCCCN)C(=O)N[C@@H](CCC(N)=O)C(=O)N[C@@H](CCC(=O)O)C(=O)N[C@@H](CCCNC(=N)N)C(=O)N[C@@H](CCC(N)=O)C(=O)N[C@@H](CCCCN)C(=O)N[C@@H](CCCCN)C(=O)NC(C)(C)C(=O)N[C@@H](CCCNC(=N)N)C(=O)N[C@@H](CCC(=O)O)C(=O)N[C@@H](CCC(N)=O)C(=O)N[C@@H](C)C(=O)N[C@@H](CCC(=O)O)C(=O)N[C@@H](CCCCN)C(=O)N[C@@H](CC(N)=O)C(=O)N[C@@H](CCCCN)C(=O)N[C@@H](CCCNC(=N)N)C(=O)N[C@H](C(=O)N[C@@H](CC(C)C)C(=O)N[C@@H](CCC(=O)O)C(=O)N[C@@H](CCCNC(=N)N)C(=O)N[C@H](C(N)=O)C(C)C)[C@@H](C)CC)[C@@H](C)CC)[C@@H](C)CC)C(C)C)C(C)C
As to B5, the “EC50 [nM] 0% HSA (cAMP, HTRF)” value is over 100 nM and the “Emax (%) (100% = Sauvagine at 100 nM)” value stood at 16.9%.

B6: peptide of SEQ ID NO: 195 (peptide)
peptide: IVLSLD[dV]PIGLK([γGlu-C16 diacid])QILLKQERQKK[Aib]RQQAETNKRILERV-NH2
modifications: N-terminus assumed
SMILES: CC[C@H](C)[C@H](N)C(=O)N[C@H](C(=O)N[C@@H](CC(C)C)C(=O)N[C@@H](CO)C(=O)N[C@@H](CC(C)C)C(=O)N[C@@H](CC(=O)O)C(=O)N[C@@H](C(=O)N1CCC[C@H]1C(=O)N[C@H](C(=O)NCC(=O)N[C@@H](CC(C)C)C(=O)N[C@@H](CCCCNC(=O)CC[C@H](NC(=O)CCCCCCCCCCCCCCC(=O)O)C(=O)O)C(=O)N[C@@H](CCC(N)=O)C(=O)N[C@H](C(=O)N[C@@H](CC(C)C)C(=O)N[C@@H](CC(C)C)C(=O)N[C@@H](CCCCN)C(=O)N[C@@H](CCC(N)=O)C(=O)N[C@@H](CCC(=O)O)C(=O)N[C@@H](CCCNC(=N)N)C(=O)N[C@@H](CCC(N)=O)C(=O)N[C@@H](CCCCN)C(=O)N[C@@H](CCCCN)C(=O)NC(C)(C)C(=O)N[C@@H](CCCNC(=N)N)C(=O)N[C@@H](CCC(N)=O)C(=O)N[C@@H](CCC(N)=O)C(=O)N[C@@H](C)C(=O)N[C@@H](CCC(=O)O)C(=O)N[C@H](C(=O)N[C@@H](CC(N)=O)C(=O)N[C@@H](CCCCN)C(=O)N[C@@H](CCCNC(=N)N)C(=O)N[C@H](C(=O)N[C@@H](CC(C)C)C(=O)N[C@@H](CCC(=O)O)C(=O)N[C@@H](CCCNC(=N)N)C(=O)N[C@H](C(N)=O)C(C)C)[C@@H](C)CC)[C@@H](C)O)[C@@H](C)CC)[C@@H](C)CC)C(C)C)C(C)C
For B6, the “EC50 [nM] 0% HSA (cAMP, HTRF)” value was over 100 nM and the “Emax (%) (100% = Sauvagine at 100 nM)” value was determined as 17.1%.

These data come from patent US12679878B2, “CRF2 receptor agonists and their use in therapy” (SANOFI, priority 2020, dated 2026).
